Data set [1] concerns the target WTgp5 (T7 DNA polymerase, exo-);thioredoxin (trx) (bacteriophage T7;Escherichia coli?, UniProt P00581;P0AA25 1-704;1-109, D5A;E7A|). The experiment in a line: EMSA; 20 mM Hepes pH 7.5, 1 mM EDTA, 100 mM KCl, 0.1 mM bME, 5% glycerol, 0.10 mg/mL BSA, 10 nM DNA, 25 C (30 min; 15 min + 15 min for supershift). Conditions: protein: recombinant;recombinant, tags: ;, copies: 1;1, label: 5' Cy5 on primer.

The target of data set [2] is T1, WAgp5;thioredoxin (trx) (bacteriophage T7;Escherichia coli?, UniProt P00581;P0AA25 1-704;1-109, D5A;E7A;W579A|). The experiment in a line: EMSA; similar to WTgp5; 20 mM Hepes pH 7.5, 1 mM EDTA, 100 mM KCl, 0.1 mM bME, 5% glycerol, 0.10 mg/mL BSA, 10 nM DNA, 25 C (30 min; 15 min + 15 min for supershift). The note with it: protein: recombinant;recombinant; tags: ;; copies: 1;1; label: 5' Cy5 on primer; primer-template, 26 bp duplex, 32 nt 5' template overhang. In general terms: A gel shift assay detects complexes by their altered migration in electrophoresis.

The target of data set [3] is T1, WAgp5;thioredoxin (trx). As to the kind of experiment: EMSA; 1 and 0 gap affinities similar; 20 mM Hepes pH 7.5, 1 mM EDTA, 100 mM KCl, 0.1 mM bME, 5% glycerol, 0.10 mg/mL BSA, 10 nM DNA, 25 C (30 min; 15 min + 15 min for supershift). The note with it: protein: recombinant;recombinant, tags: ;, copies: 1;1, label: 5' Cy5 on primer.
A further data set has as its target EQgp4deltaC (bacteriophage T7, UniProt P03692 1-549, E343Q). The experiment in a line: EMSA; 20 mM Hepes pH 7.5, 1 mM EDTA, 100 mM KCl, 0.1 mM bME, 5% glycerol, 0.10 mg/mL BSA, 10 nM DNA, 25 C (30 min; 15 min + 15 min for supershift). The note with it: protein: recombinant; tags: His tag removed (PreScission); chain copies: 6; label: 5' Cy5 on primer; fork 1:2 2:3, 2 nt ssDNA gap between primer end and fork.

The target of another data set is EQgp4 (T7 helicase) (bacteriophage T7, UniProt P03692 1-566, E343Q). The experiment in a line: EMSA; dTTP; 20 mM Hepes pH 7.5, 1 mM EDTA, 100 mM KCl, 0.1 mM bME, 5% glycerol, 0.10 mg/mL BSA, 10 nM DNA, 25 C (30 min; 15 min + 15 min for supershift). The note with it: protein: recombinant; tags: His tag removed (PreScission); chain copies: 6; label: 5' Cy5 on primer; fork 1:2 2:3, 2 nt ssDNA gap between primer end and fork.

The target of data set [4] is EQgp4 (T7 helicase);K3Dgp5;thioredoxin (trx) (bacteriophage T7;bacteriophage …, UniProt P03692;P00581;P0AA25 1-566;1-704;1-109, E343Q|D5A;E7A;K545D;K549D;K553D|). As to the kind of experiment: EMSA; K3Dgp5-trx stimulates EQgp4 binding; 20 mM Hepes pH 7.5, 1 mM EDTA, 100 mM KCl, 0.1 mM bME, 5% glycerol, 0.10 mg/mL BSA, 10 nM DNA, 25 C (30 min; 15 min + 15 min for supershift). The note with it: protein: recombinant;recombinant;recombinant; tags: His tag removed (PreScission);;; chain copies: 6;1;1; label: 5' Cy5 on primer; fork 1:2 2:3, 2 nt ssDNA gap between primer end and fork.

Data set [5] concerns the target EQgp4 (T7 helicase);WTgp5 (T7 DNA polymerase, exo-);thioredoxin (trx) (bacteriophage T7;bacteriophage …, UniProt P03692;P00581;P0AA25 1-566;1-704;1-109, E343Q|D5A;E7A|). As to the kind of experiment: EMSA; EQgp4 titrated onto DNA pre-bound to WTgp5-trx (60-100 nM); 20 mM Hepes pH 7.5, 1 mM EDTA, 100 mM KCl, 0.1 mM bME, 5% glycerol, 0.10 mg/mL BSA, 10 nM DNA, 25 C (30 min; 15 min + 15 min for supershift). Conditions: protein: recombinant;recombinant;recombinant; tags: His tag removed (PreScission);;; chain copies: 6;1;1; label: 5' Cy5 on primer; fork 1:2 2:3, 2 nt ssDNA gap between primer end and fork.

B1: Linear template-58nt (dsDNA)
DNA 1: GGATTATTTACATTGGCAGATTCACC
DNA 2: TTATTAGTTATGATATTCATGTATAGTTATATGGTGAATCTGCCAATGTAAATAATCC
The term Kd denotes the equilibrium constant for the complex coming apart. As to B1, in data set [1] (primer-template, 26 bp duplex, 32 nt 5' template overhang), the Kd came to 53 nM. Further, in the data set with WAgp5;thioredoxin (trx) [2], the binding result is recorded as “binds”.

B2: Fork template 0gap (mixed)
DNA 1: GGATTATTTACATTGGCAGATTCACC
DNA 2: TTATTAGTTATGATATTCATGTATAGTTATATGGTGAATCTGCCAATGTAAATAATCC
DNA 3: TATTCATGTATAGTTATGTAGAGACCGAGATCCGCGCTGCCAGTCGGCAGAGCC
B2: in data set [1] (fork 1:2 2:3, no gap), the Kd worked out at 110 nM. The binding result with WAgp5;thioredoxin (trx) [3] (fork 1:2 2:3, no gap) is listed as “binds”.

B3: Fork template 1gap (mixed)
DNA 1: GGATTATTTACATTGGCAGATTCACC
DNA 2: TTATTAGTTATGATATTCATGTATAGTTATATGGTGAATCTGCCAATGTAAATAATCC
DNA 3: TATTCATGTATAGTTATGTAGAGTCCGAGATCCGCGCTGCCAGTCGGCAGAGCC
With B3, the Kd in data set [1] (fork 1:2 2:3, 1 nt ssDNA gap) amounted to 63 nM. For the same molecule, in the data set with WAgp5;thioredoxin (trx) [3] (fork 1:2 2:3, 1 nt ssDNA gap), the binding result is given as “binds”.

B4: Fork template 2gap (mixed)
DNA 1: GGATTATTTACATTGGCAGATTCACC
DNA 2: TTATTAGTTATGATATTCATGTATAGTTATATGGTGAATCTGCCAATGTAAATAATCC
DNA 3: TATTCATGTATAGTTATGTAGAGTTCCGAGATCCGCGCTGCCAGTCGGCAGAGCC
For the molecule B4, the Kd in data set [1] (fork 1:2 2:3, 2 nt ssDNA gap between primer end and fork) came out at 36 nM; with EQgp4deltaC, 30 nM; with EQgp4 (T7 helicase), 24 nM; in data set [5], 8 nM. Further, the binding result in data set [4] is reported as “binds”.

For the origin of these results see article PMC8835902, “DNA Polymerase-Parental DNA Interaction Is Essential for Helicase-Polymerase Coupling during Bacteriophage T7 DNA Replication”.
